Test results reported in patent US20180312579A1 (Genentech, published 2018).
Numbering of substitutions follows the chain as printed. Blank lines part the entries; values can stand above or below the binder they belong to.

Assays:
recombinant human RSPO2 [1] = molecular target: T1, recombinant human RSPO2 (human, UniProt Q6UXX9 22-243); test: SPR (Biacore) with the Fab; table row RSPO2, Affinity (nM) Fab
T1 construct: Recombinant protein of the WNT reporter assays and of the Octet binning (R&D Systems; biotinylated for Octet); also called rhRSPO2; hRSPO2
Description: (§1) For kinetic measurements, two-fold serial dilutions of anti-RSPO Fabs were injected in HBS-P buffer (0.01M HEPES pH 7.4, 0.15M NaCl, 0.005% surfactant P20) at 25° C. with a flow rate of 30 μl/min. Association rates (kₒₙ) and dissociation rates (koff) were calculated using a simple one-to-one Langmuir binding model (BIAcore Evaluation Software version 3.2). The equilibrium dissociation constant (KD) was calculated as the ratio koff/kₒₙ.
(§2) Surface plasmon resonance was used to confirm binding specificities and affinities to human, mouse, and cynomolgus RSPOs. Fab fragments from antibody clones were digested, purified, and then assayed using a BIAcore™-2000 instrument for binding to recombinant proteins. Antibodies fell into three groups: those specific to RSPO2, those specific to RSPO3, and those with some degree of cross-reactivity (FIG. 5).

cynomolgus RSPO2 [2] = molecular target: T2, cynomolgus RSPO2 (cynomolgus, UniProt G7PCH9 22-243); test: as above
T2 construct: also called cynoRSPO2; rcynoRSPO2
Description: as §1, §2

mouse RSPO2 [3] = molecular target: T3, mouse RSPO2 (mouse, UniProt Q8BFU0 22-205, limits assumed); test: as above
T3 construct: also called mRSPO2
Description: as §1, §2

recombinant human RSPO3 [4] = molecular target: T4, recombinant human RSPO3 (human, UniProt Q9BXY4 22-272); test: SPR (Biacore) with the Fab; table row RSPO3, Affinity (nM) Fab
T4 construct: also called rhRSPO3; hRSPO3
T4 sequence: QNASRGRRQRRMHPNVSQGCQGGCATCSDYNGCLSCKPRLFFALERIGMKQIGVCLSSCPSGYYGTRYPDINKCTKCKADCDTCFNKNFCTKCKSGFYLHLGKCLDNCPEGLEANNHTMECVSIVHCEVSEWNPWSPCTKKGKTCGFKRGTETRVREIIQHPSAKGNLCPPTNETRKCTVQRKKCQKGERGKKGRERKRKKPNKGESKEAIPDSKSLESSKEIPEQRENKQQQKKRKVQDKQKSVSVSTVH
Description: as §1, §2

cynomolgus RSPO3 [5] = molecular target: T5, cynomolgus RSPO3 (cynomolgus, UniProt A0A2K5UTQ7 22-273); test: as above
T5 construct: also called cynoRSPO3; rcynoRSPO3
T5 sequence: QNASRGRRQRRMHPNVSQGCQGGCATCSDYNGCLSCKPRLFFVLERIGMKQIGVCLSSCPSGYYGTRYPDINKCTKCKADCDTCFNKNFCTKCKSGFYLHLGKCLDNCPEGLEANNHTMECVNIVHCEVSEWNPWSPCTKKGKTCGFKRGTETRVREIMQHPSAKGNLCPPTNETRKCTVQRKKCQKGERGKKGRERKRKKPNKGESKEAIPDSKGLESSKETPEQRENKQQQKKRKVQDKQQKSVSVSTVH
Description: as §1, §2

mouse RSPO3 [6] = molecular target: T6, mouse RSPO3 (mouse, UniProt Q2TJ95 22-277, limits assumed); test: as above
T6 construct: also called mRSPO3; murine RSPO3
T6 sequence (looked up): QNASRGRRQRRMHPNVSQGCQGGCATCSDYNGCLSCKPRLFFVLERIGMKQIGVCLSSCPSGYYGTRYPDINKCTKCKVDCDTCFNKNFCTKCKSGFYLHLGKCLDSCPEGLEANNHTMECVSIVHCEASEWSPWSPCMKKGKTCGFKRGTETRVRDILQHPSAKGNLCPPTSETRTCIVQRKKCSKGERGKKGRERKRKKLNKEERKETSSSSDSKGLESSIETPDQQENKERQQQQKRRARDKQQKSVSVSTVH
Description: as §1, §2

recombinant human RSPO2 [7] = molecular target: T1, recombinant human RSPO2; test: cell-based or functional assay
recombinant human RSPO3 [8] = molecular target: T4, recombinant human RSPO3; test: cell-based or functional assay
cynomolgus RSPO3 [9] = molecular target: T5, cynomolgus RSPO3; test: cell-based or functional assay
mouse RSPO3 [10] = molecular target: T6, mouse RSPO3; test: cell-based or functional assay
cynomolgus RSPO2 [11] = molecular target: T2, cynomolgus RSPO2; test: cell-based or functional assay
mouse RSPO2 [12] = molecular target: T3, mouse RSPO2; test: cell-based or functional assay
[13] = molecular target: T7, human RSPO3 with C-terminal HA tag, stably expressed in 293 cells (human, UniProt Q9BXY4 22-272); test: IHC, FFPE 293 cell pellet, RSPO3 Hi; - = not significant staining
T7 construct: Whole open reading frame expressed in HEK-293 cells (high, medium, low); FFPE pellets; also called hRSPO3; RSPO3 Hi
T7 sequence: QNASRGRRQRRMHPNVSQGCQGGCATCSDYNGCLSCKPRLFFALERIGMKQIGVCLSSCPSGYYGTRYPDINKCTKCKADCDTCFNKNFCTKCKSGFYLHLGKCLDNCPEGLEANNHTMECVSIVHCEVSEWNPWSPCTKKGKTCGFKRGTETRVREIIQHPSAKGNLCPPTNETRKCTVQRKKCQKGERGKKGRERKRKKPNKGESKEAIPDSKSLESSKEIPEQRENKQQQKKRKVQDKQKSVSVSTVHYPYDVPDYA

[14] = molecular target: T8, FLAG-tagged human RSPO2 (Genentech) (human, UniProt Q6UXX9 22-243); test: competitive binding ELISA: titrated against biotinylated RNF43-Flag (RNF43-ECD) binding to plate-coated hRSPO2; signal = bound RNF43, normalized OD
T8 construct: also called hRSPO2; RSPO2 coated plates; not shown: FLAG tag

[15] = molecular target: T9, FLAG-tagged human RSPO3 (Genentech) (human, UniProt Q9BXY4 22-272); test: competitive binding ELISA: titrated against biotinylated RNF43-Flag (RNF43-ECD) binding to plate-coated hRSPO3; signal = bound RNF43, normalized OD
T9 construct: also called hRSPO3; RSPO3 coated plates; not shown: FLAG tag
T9 sequence: T4 sequence

T3 sequence (Q8BFU0 22-205 limits assumed): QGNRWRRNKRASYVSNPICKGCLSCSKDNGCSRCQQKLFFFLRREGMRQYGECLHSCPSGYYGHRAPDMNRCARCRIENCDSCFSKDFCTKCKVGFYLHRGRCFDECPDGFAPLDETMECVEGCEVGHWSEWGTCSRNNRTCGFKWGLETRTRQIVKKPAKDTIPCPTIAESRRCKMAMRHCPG
T2 sequence (G7PCH9 entry or part of it): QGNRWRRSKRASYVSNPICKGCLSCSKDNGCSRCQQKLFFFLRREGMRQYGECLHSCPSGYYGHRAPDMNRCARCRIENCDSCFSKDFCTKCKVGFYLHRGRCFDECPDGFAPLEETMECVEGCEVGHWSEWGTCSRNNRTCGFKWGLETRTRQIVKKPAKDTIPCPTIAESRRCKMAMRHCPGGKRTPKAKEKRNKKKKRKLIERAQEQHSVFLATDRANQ
T1 sequence (Q6UXX9 22-243): as the sequence (G7PCH9 entry or part of it) above, with A160V, P165L, A178T counted along it
T8 sequence (Q6UXX9 22-243): as the sequence (G7PCH9 entry or part of it) above, with A160V, P165L, A178T counted along it

B1: Fab 26E11 (Fab, V domains shown)
VH: EVQLQESGPSLVKPSQTLSLTCSVTGDSITSGYWSWIRKFPGNKLEFMGYISFSGKTYYIPSLKSRVSITRDTSKNQYYLQLNSVTTEDTATYYCATYHGYGGPWFAYWGQGTLVTVSS
VL: DIKMTQSPSSMYASLGERVTITCKASQDIDSYLSWFQQKPGKSPKTLIYLTNRLIDGVPSRFSGSGSGQDYSLTINSLEYEDMGIYYCLQYDEFPVTFGAGTRLEIK
notes: Fab expressed in E. coli for crystallography; also called 26E11 Fab
Kd (recombinant human RSPO2 [1]): 80 nM | Kd (cynomolgus RSPO2 [2]): 62 nM | Kd (mouse RSPO2 [3]): 66 nM | Kd (recombinant human RSPO3 [4]): 0.7 nM | Kd (cynomolgus RSPO3 [5]): 2.43 nM | Kd (mouse RSPO3 [6]): 1.42 nM

B2: 11F11 (antibody, V domains shown)
VH: QVQLQQSGPQLVKPGFSVKFSCKASGITFTEYYVTWVKQRAGQGLEWVGDIDPENGDTDYNQKFQGKATITADKSSSTAYMELSSLTSEDSAVYYCATGYDYAFDSWGQGTLVTVSS
VL: QPVLTQSPSASASLGASVKLTCTLSSQHSSYGITWLQQHPDKAPKCVMYLRSDGSHSKGDGIPDRFSGSSSGAHRYLSISNVQPEDEAIYFCVTYDSTVGVFGSGTQLTVP
notes: also called monoclonal antibody 11F11
IC50, WNT luciferase reporter, bivalent antibody (recombinant human RSPO2 [7]): 0.179 nM | IC50, WNT luciferase reporter, bivalent antibody (recombinant human RSPO3 [8]): > 500 nM | IC50, WNT luciferase reporter, bivalent antibody (cynomolgus RSPO3 [9]): > 500 nM | IC50, WNT luciferase reporter, bivalent antibody (mouse RSPO3 [10]): > 500 nM | IC50, WNT luciferase reporter, bivalent antibody (cynomolgus RSPO2 [11]): 1.9 nM | IC50, WNT luciferase reporter, bivalent antibody (mouse RSPO2 [12]): > 500 nM | binding result [13]: no binding

B3: 11F11 (Fab, V domains shown)
VH: B2 VH
VL: B2 VL
notes: also called Fab of 11F11; 11F11 Fab
Kd (recombinant human RSPO2 [1]): 63 nM | binding result (mouse RSPO2 [3]): no binding | binding result (recombinant human RSPO3 [4]): no binding | binding result (cynomolgus RSPO3 [5]): no binding | binding result (mouse RSPO3 [6]): no binding

B5: 1A1 (Fab, V domains shown)
VH: EVQLVESGGGLVKPEGSLKLSCVASGFTFSDYFMSWVRQAPGQGLEWVAHIYTKTYNYATYYSGSVKGRFSISRDDSRNMVYLQMNNLRTEDTATYYCTTDEDWYFDFWGQGTQVTVSS
VL: QPVLTQSPSVSASLGASVKLTCTLSSQHSTNYIEWYQQHPDKSPKFLMQVRDGSHSKGDGTPDRFSGSSSGAHRYLSISNLQLEDEAIYYCGLSDVSLYLFGSGTQLTLL
notes: also called Fab of 1A1; 1A1 Fab
Kd (recombinant human RSPO2 [1]): 2.9 nM | Kd (cynomolgus RSPO2 [2]): 1.4 nM | Kd (mouse RSPO2 [3]): 3.6 nM | binding result (recombinant human RSPO3 [4]): no binding | binding result (cynomolgus RSPO3 [5]): no binding | binding result (mouse RSPO3 [6]): no binding

B8: 36D2 (Fab, V domains shown)
VH: QIQLQESGPGLVKPSQSLSLTCSVTGNSITSSDWSWIRQFPGKKLEWMGYMNYGGGTYYNPSLENRISITRDTSKNQFFLHLKSVTTEDTATYYCARERPHPYAYFDVWGQGIQVTVSS
VL: ELVFTQPQSVSGSLGQEISISCTRSSGNIGSNYVSWYQQQSSNKPRLLIYKFDQRPSGVPDRFSGSTDSSSNSGILTISRLQPEDEGDYYCLSGYDKYVFGSGTQLTLL
notes: also called Fab of 36D2; 36D2 Fab
Kd (recombinant human RSPO2 [1]): 6.3 nM | Kd (cynomolgus RSPO2 [2]): 11 nM | Kd (mouse RSPO2 [3]): 5.5 nM | binding result (recombinant human RSPO3 [4]): no binding | binding result (cynomolgus RSPO3 [5]): no binding | binding result (mouse RSPO3 [6]): no binding

The remaining lines, values ahead:

IC50 (read off the curve) [14]: ~0.2 µg/mL | IC50 (read off the curve) [15]: ~0.5 µg/mL
B4: RNF43 (receptor)
chain: GFGRTGLVLAAAVESERSAEQKAIIRVIPLKMDPTGKLNLTLEGVFAGVAEITPAEGKLMQSHPLYLCNASDDDNLEPGFISIVKLESPRRAPRPCLSLASKARMAGERGASAVLFDITEDRAAAEQLQQPLGLTWPVVLIWGNDAEKLMEFVYKNQKAHVRIELKEPPAWPDY
notes: kept apart from the biotinylated tracer m34; not shown: FLAG tag and any linker to it

binding result (cynomolgus RSPO2 [2]): no binding | binding result (mouse RSPO2 [3]): no binding | Kd (recombinant human RSPO3 [4]): 10.6 nM | Kd (cynomolgus RSPO3 [5]): 39 nM | Kd (mouse RSPO3 [6]): 98 nM
B6: 5E11 (Fab, V domains shown)
VH: QVQLKQSGPGLVQPSQSLSITCTVSGFSLSSYAVHWVRQSPGEGLEWLGVIWSGGSTDYNAAFISRMSITKDNSKSQVFFKMNSLQADDTAIYFCARNDGYYYFDYWGQGTTLTVSS
VL: DIVMTQSTSSLSASLGDRVTISCRASQDISNYLNWYQQKPDGTVKLLIYYTSRLHSGVPSRFSGSGSGTDYSLTISNLEKEDVATYFCQHGDTLPPTFGGGTKLEIK
notes: also called Fab of 5E11; 5E11 Fab

binding result (cynomolgus RSPO2 [2]): no binding | binding result (mouse RSPO2 [3]): no binding | Kd (recombinant human RSPO3 [4]): 17 nM | Kd (cynomolgus RSPO3 [5]): 70 nM | Kd (mouse RSPO3 [6]): 63 nM
B7: 5C2 (Fab, V domains shown)
VH: EVQLQESGPGLVAPSQSLSITCTVSGFSLTSYGVHWVRQPPGKGLEWLGVIWTGGSTNYNSALMSRLSISKDNSKSQVFLKMNSLQTDDTAMYYCARVDGYYYFDYWGQGTTLTVSS
VL: B6 VL with K80P, V83I, H90Q
notes: also called Fab of 5C2; 5C2 Fab
